# Source: PMC3836802, “LOV Takes a Pick: Thermodynamic and Structural Aspects of the Flavin-LOV-Interaction of the Blue-Light Sensitive Photoreceptor YtvA from Bacillus subtilis” (PLoS ONE, 2013)
# Residue numbers refer to the chain shown, from its start.
# B1: Apo-YtvA (deflavinated full length YtvA, aa 1 – 261) (natural protein, Bacillus subtilis, UniProt O34627 1-261, looked up)
# chain: GASFQSFGIPGQLEVIKKALDHVRVGVVITDPALEDNPIVYVNQGFVQMTGYETEEILGKNCRFLQGKHTDPAEVDNIRTALQNKEPVTVQIQNYKKDGTMFWNELNIDPMEIEDKTYFVGIQNDITKQKEYEKLLEDSLTEITALSTPIVPIRNGISALPLVGNLTEERFNSIVCTLTNILSTSKDDYLIIDLSGLAQVNEQTADQIFKLSHLLKLTGTELIITGIKPELAMKMNKLDANFSSLKTYSNVKDAVKVLPIM
# notes: YtvA, blue-light photoreceptor of Bacillus subtilis, full length, residues 1-261 (LOV domain aa 21-126, Jα-helix aa 127-147, STAS domain aa 148-261); Met1 replaced by the Gly left after TEV cleavage; source: TEV cleavage; not shown: His tag, N-terminal, cleaved
# B2: Apo-YLOV (deflavinated extended LOV domain of YtvA, aa 1 – 128) (domain or fragment, Bacillus subtilis, UniProt O34627 1-128, looked up)
# chain: GASFQSFGIPGQLEVIKKALDHVRVGVVITDPALEDNPIVYVNQGFVQMTGYETEEILGKNCRFLQGKHTDPAEVDNIRTALQNKEPVTVQIQNYKKDGTMFWNELNIDPMEIEDKTYFVGIQNDITK
# notes: YtvA, blue-light photoreceptor of Bacillus subtilis, residues 1-128 (N-terminal cap and LOV domain); TEV cleavage leaves a Gly at the N-terminus; the forward primer reads Gly-Ala-Ser-Phe-Gln, so the Gly stands in the place of Met1; also called YtvA-LOV domain; not shown: His tag, N-terminal, cleaved
# Columns and labels:
# [1] = biological target: T1, YLOV (Apo-YLOV; LOV domain of YtvA, aa 1-128) (Bacillus subtilis, UniProt O34627, M1G); assay: isothermal titration calorimetry; assay type: binding; settings: 25 °C; 20 mM Tris-HCl pH 7.5, 150 mM NaCl, 500 µM TCEP; dark; apoprotein titrated into flavin; single-site global fit; brackets 95% confidence interval
# T1 construct: gene pfyP; LOV domain with N-terminal cap, aa 1-128; apo form in monomer-dimer equilibrium; 15N-labelled for ITC
# T1 sequence (O34627 1-128 M1G): B2 chain with G1M
# Source text: isothermal titration calorimetry on YLOV (Apo-YLOV; LOV domain of YtvA, aa 1-128)
# [2] = biological target: YtvA LOV domain 21-147 (Bacillus subtilis) (UniProt O34627); settings: cited from earlier work
# YtvA (Bacillus subtilis) = YtvA (Bacillus subtilis) (UniProt O34627); settings: cited from earlier work
# [3] = biological target: the molecule itself; assay: AUC; sedimentation velocity, 45,000 rpm, 20 °C, absorbance at 280 nm; Apo-YtvA at 15, 30 and 60 µM in buffer H (20 mM K-phosphate pH 6.5, 50 mM NaCl, 5 mM DTT, 0.1% azide); c(S) analysis with Sedfit; dimer to monomers
# [4] = biological target: the molecule itself; assay: AUC; sedimentation velocity, 45,000 rpm, 25 °C, absorbance at 280 nm; Apo-YLOV at 17.5, 35 and 70 µM in buffer G (20 mM Tris-HCl pH 7.5, 150 mM NaCl, 500 µM TCEP); c(S) analysis with Sedfit; dimer to monomers; the KD is called only an estimate
molecule,measurement,setting,value
Cc1cc2nc3c(=O)[nH]c(=O)nc-3n(C[C@H](O)[C@H](O)[C@H](O)CO)c2cc1C [RF],Kd,[1],351 nM
Cc1cc2nc3c(=O)[nH]c(=O)nc-3n(C[C@H](O)[C@H](O)[C@H](O)COP(=O)(O)O)c2cc1C [FMN],Kd,[1],715 nM
Cc1cc2nc3c(=O)[nH]c(=O)nc-3n(C[C@H](O)[C@H](O)[C@H](O)COP(=O)(O)OP(=O)(O)OC[C@H]3O[C@@H](n4cnc5c(N)ncnc54)[C@H](O)[C@@H]3O)c2cc1C [FAD],Kd,[1],224 nM
YtvA LOV domain 21-147 (from UniProt O34627),Kd,[2],< 200 nM
YtvA (from UniProt O34627),Kd,YtvA (Bacillus subtilis),< 300 nM
B1,stoichiometry N,[3],2
B2,Kd,[4],~14000 nM
same,stoichiometry N,[4],2
